Measurements taken from paper doi:10.1101/2025.06.18.660434.

Target: GST-fusion RACK1 (UniProt P63244)
Assay: pull-down

## His-tagged PKAcα (from UniProt P17612 1-351) (enzyme)
  Kd: 32 nM
